Reference: publication PMC3872205 (Journal of molecular biology, 2013)
Each block holds one molecule with its values, some of them ahead of it.

What was measured:
Assay in all cases: ITC
[1] = biological target: Rb^380-816∆PL/S780A, unphosphorylated (UniProt P06400)
[2] = biological target: Rb^380-794∆PL/S780A, phosphorylated (UniProt P06400)
[3] = biological target: Rb^380-816∆PL/S780A with S788 and S795 substituted to alanine, phosphorylated (UniProt P06400)
[4] = biological target: Rb^380-800∆PL/S780A, phosphorylated (UniProt P06400)
[5] = biological target: Rb^380-800∆PL/S780A, unphosphorylated (UniProt P06400)
[6] = biological target: Rb^380-794∆PL/S780A, unphosphorylated (UniProt P06400)
[7] = biological target: Rb^380-816∆PL/S780A with S788 and S795 substituted to alanine, unphosphorylated (UniProt P06400)
[8] = biological target: Rb^380-816∆PL/S780A with S807 and S811 substituted for alanine, phosphorylated (UniProt P06400)
[9] = biological target: Rb^380-816∆PL/S780A, phosphorylated (UniProt P06400)
[10] = biological target: Rb construct phosphorylated at Rb^IDL (T356/T373) (construct of Table 2)
[11] = biological target: Rb^53-800∆NL/∆PL/S780A, phosphorylated (UniProt P06400)
[12] = biological target: Rb construct phosphorylated at Rb^PL (S608/S612) (construct of Table 2)
[13] = biological target: Rb construct phosphorylated at RbC^N (S788/S795) (construct of Table 2)
[14] = biological target: T1, Rb^380-816/780A, unphosphorylated (UniProt P06400 380-816, 780A)
T1 sequence (looked up): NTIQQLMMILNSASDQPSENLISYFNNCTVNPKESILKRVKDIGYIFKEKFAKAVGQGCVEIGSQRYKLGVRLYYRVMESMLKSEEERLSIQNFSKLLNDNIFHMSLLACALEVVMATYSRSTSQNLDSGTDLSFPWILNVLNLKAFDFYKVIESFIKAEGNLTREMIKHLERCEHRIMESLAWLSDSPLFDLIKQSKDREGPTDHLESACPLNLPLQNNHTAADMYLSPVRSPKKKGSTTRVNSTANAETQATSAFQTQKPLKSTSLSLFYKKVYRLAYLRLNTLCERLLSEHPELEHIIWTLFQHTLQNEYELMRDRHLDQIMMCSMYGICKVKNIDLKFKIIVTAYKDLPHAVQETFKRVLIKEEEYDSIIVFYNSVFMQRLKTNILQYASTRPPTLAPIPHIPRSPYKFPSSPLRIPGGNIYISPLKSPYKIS

[15] = biological target: Rb^53-800∆NL/∆PL/S780A, phosphorylated (UniProt P06400 53-800, S780A, phosphorylated with Cdk; Rb^IDL (T356/T373) and RbC^N (S788/S795) sites)
[16] = biological target: Rb^53-800∆NL/∆PL/S780A, unphosphorylated (UniProt P06400 53-800, S780A)

- Kd [1]: 0.07 µM
- Kd [2]: 0.27 µM
- Kd [3]: 0.13 µM
- Kd [4]: 0.51 µM
- Kd [5]: 0.05 µM
- Kd [6]: 0.12 µM
- Kd [7]: 0.09 µM
- Kd [8]: 0.51 µM
- Kd [9]: 0.47 µM
Molecule: E2F1 transactivation domain (E2F1^TD, residues 372-437) (from UniProt Q01094 372-437) (domain or fragment)

- fold inhibition of binding against the unphosphorylated construct [10]: 2 fold
- fold reduction in binding affinity against the unphosphorylated construct [11]: 22 fold
Molecule: E2F2 transactivation domain (E2F2^TD) (domain or fragment)

- fold rise of Kd against the unphosphorylated construct [12]: 9 fold
- fold inhibition of binding against the unphosphorylated construct [10]: 25 fold
- fold rise of Kd against the unphosphorylated construct [13]: 10 fold
Molecule: E2F3 transactivation domain (E2F3^TD) (domain or fragment)

- Kd [14]: 0.07 µM
- Kd [15]: 30 µM
- Kd [16]: 0.13 µM
B1: E2F1 transactivation domain (E2F1^TD, residues 372-437) (domain or fragment, UniProt Q01094 372-437, looked up)
chain: DRLSPLVAADSLLEHVREDFSGLLPEEFISLSPPHEALDYHFGLEEGEGIRDLFDCDFGDLTPLDF
